We go through two sequences from paper PMC7356834.

The subject of data set [1] is T1, APASM_1021 (AdpA-like protein) (Actinosynnema pretiosum ATCC 31280), ORF:1b9350d8.
T1 sequence: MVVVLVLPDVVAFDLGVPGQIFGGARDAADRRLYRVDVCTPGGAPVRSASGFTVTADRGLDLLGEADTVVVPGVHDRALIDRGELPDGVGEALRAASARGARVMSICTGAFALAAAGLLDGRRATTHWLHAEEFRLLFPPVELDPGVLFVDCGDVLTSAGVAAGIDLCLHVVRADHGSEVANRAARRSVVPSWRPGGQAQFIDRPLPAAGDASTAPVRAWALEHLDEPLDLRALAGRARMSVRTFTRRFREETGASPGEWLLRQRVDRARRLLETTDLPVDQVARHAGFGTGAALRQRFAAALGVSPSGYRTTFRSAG
In words: competition. Particulars: 10 mM Tris-HCl pH 7.5, 1 mM EDTA, 100 mM KCl, 5% glycerol, 0.1 DTT (unit not given), 0.01 mg/mL BSA; 30 min at 30 C; 10% native PAGE at 4 C.

Data set [2] shares this test system. In words: EMSA. Conditions: 10 mM Tris-HCl pH 7.5, 1 mM EDTA, 100 mM KCl, 5% glycerol, 0.1 DTT (unit not given), 0.01 mg/mL BSA; 30 min at 30 C; 10% native PAGE at 4 C. On the technique in general: A gel shift assay detects complexes by their altered migration in electrophoresis.

Consider “TGGAGCCGCTGACGGGGAGCCATCGACGGGAAGCCGCTGACCGGCCTCTCCGCGCCGCCACGCGGGCGCCGCACCTGAACCAGGTGCGGCGCCCGCGTGGTCGCGCCCTTTGACCCCGCCCCCGTTCCCCT (double strand) [P4178 unlabeled competitor]”, for which the binding entry in data set [1] is “binds”. With “TGGAGCCGCTGACGGGGAGCCATCGACGGGAAGCCGCTGACCGGCCTCTCCGCGCCGCCACGCGGGCGCCGCACCTGAACCAGGTGCGGCGCCCGCGTGGTCGCGCCCTTTGACCCCGCCCCCGTTCCCCT (double strand) [P4178]”, the binding result in data set [2] was “binds”.
